Earlier results on one substance are cited in publication PMC4518304.

The target of the data set is Asp26 (UniProt position 27, GAILVDFWAEW). Put plainly: NMR. The conditions noted are these: reduced thioredoxin (per title of ref. 51).

“Thioredoxin (thioredoxin 1) (Escherichia coli)”: the pKa is 7.3–7.5.
